Assay results as given in patent US20240409645A1.
Positions count from the first letter of the chain named. Values belong to the binder of their own block, whether it stands above or below them.

Key:
mouse IL-2Rα (mouse) = target: T1, mouse IL-2Rα (mouse) (UniProt P01590); assay: ELISA, P.E. on coated antigen
T1 sequence (looked up): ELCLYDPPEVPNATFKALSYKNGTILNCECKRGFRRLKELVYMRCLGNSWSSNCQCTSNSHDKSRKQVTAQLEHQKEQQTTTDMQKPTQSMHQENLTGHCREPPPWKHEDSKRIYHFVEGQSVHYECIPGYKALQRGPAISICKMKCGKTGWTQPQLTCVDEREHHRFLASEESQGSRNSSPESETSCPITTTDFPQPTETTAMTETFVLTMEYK

mouse IL-2Rγ (mouse) = target: T2, mouse IL-2Rγ (mouse) (UniProt P34902); assay: PE binding ELISA, periplasmic extract on coated protein
T2 sequence (looked up): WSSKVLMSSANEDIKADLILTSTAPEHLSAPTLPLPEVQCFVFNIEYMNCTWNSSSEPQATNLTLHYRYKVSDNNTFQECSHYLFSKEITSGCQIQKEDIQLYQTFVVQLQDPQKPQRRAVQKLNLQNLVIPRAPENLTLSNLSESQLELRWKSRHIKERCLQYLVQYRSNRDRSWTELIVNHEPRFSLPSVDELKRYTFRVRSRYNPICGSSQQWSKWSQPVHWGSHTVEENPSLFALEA

B1: FJ1427_P035MP01B01 (VHH)
VHH: EVQLVESGGGWVQAGDSLRLSCAASGRTFRNYVMGWFRQVPGKEREFLSVITSLGGTVYADSVANRFTISRDNPKDTVYLQMDSLKPEDTAVYYCAADRGPARYISASDVDYWGQGTQVTASS
- OD (PE binding ELISA) (mouse IL-2Rα (mouse)): 0.046 OD450 nm

B2: FJ1427_P035MP01D04 (VHH)
VHH: B1 VHH with E1Q, A14P, T28S, S53W, V58L, Y59D, N65D, P74S, D76N, A121V
- OD (PE binding ELISA) (mouse IL-2Rα (mouse)): 0.045 OD450 nm

B4: 3-MP01E03 (VHH)
VHH: QVQLVESGGGLVQAGGSLRLSCTASGRTLSSYSMAWFRQAADKGREFVTAISSSGVVTHVLDSVKGRFTISRDNAKNTVYLQMNSLQPEDTALYFCAGTASSYSTYEANYNYWGQGTLVTVSS
- OD (PE binding ELISA) (mouse IL-2Rα (mouse)): 0.046 OD450 nm

B6: 5-MP01F05 (VHH)
VHH: EVQLVESGGGLVQAGGSLRLSCAASIRAFTTWSMAWFRQAPGKEREYVARINVSGSVTYYADFVKGRFTISRDNAKKTMYLEMNNLKPEDTALYYCAADRTGVGTNDYNYWGQGTQVTVSS
- OD (PE binding ELISA) (mouse IL-2Rα (mouse)): 0.046 OD450 nm

B7: 2-MP01A02 (VHH)
VHH: QVQLVESGGGLVQPGGSLRLSCATSGFTFRNNFMSWVRQAPGKGLEWVSTISYGGESTTYAESVKGRFTISRDNAKNTLYLQMNNLKPEDTAVYYCAKATSYDSIRSGSRGQGTQVTVSS
- OD (PE binding ELISA) (mouse IL-2Rα (mouse)): 0.046 OD450 nm

B8: 8-MP01C12 (VHH)
VHH: B7 VHH with R30S, W47F, S63A, V93I, D103T, S107G, G108A, S109P
- OD (PE binding ELISA) (mouse IL-2Rα (mouse)): 0.045 OD450 nm

B10: FJ1427_P035MP01C03 (VHH)
VHH: B7 VHH with Q1E
- OD (PE binding ELISA) (mouse IL-2Rα (mouse)): 0.045 OD450 nm

B11: FJ1427_P035MP01D09 (VHH)
VHH: B7 VHH with T24A, R30S
- OD (PE binding ELISA) (mouse IL-2Rα (mouse)): 0.045 OD450 nm

B13: FJ1427_P035MP01D03 (VHH)
VHH: B7 VHH with Q1E, K43E
- OD (PE binding ELISA) (mouse IL-2Rα (mouse)): 0.048 OD450 nm

B15: 1-MP01H01 (VHH)
VHH: EVQLVESGGGLVQAGGSLRLSCAASGRTFRTHNMGWFRRAPGKEREFVAAISWNVDNTLYADSVKGRFTISRDNGRNMVYLQMNSLKPEDTAVYYCAADNIPLSSDVAATATEYDYWGQGTQVTVSS
- OD (PE binding ELISA) (mouse IL-2Rα (mouse)): 0.048 OD450 nm

B19: FJ1427_P035MP01D08 (VHH)
VHH: B15 VHH with R27G, H32R, I51V, T58K, D62G, V107M, A108R, A109P
- OD (PE binding ELISA) (mouse IL-2Rα (mouse)): 0.045 OD450 nm

B22: 6-MP01G05 (VHH)
VHH: QVQLQESGGGLVQAGGSLRLSCAASGRTFSSYAMGWFRQAPGKEREFVAVISWNVDNTEYTDSVKGRFTISRDNDKNMVYLQMNSLKPEDTAVYYCAADSIPLSSDMSPTATEYGYWGQGTQVTVSS
- OD (PE binding ELISA) (mouse IL-2Rα (mouse)): 0.046 OD450 nm

B23: 07-MP01G08 (VHH)
VHH: EVQLVESGGGLVQAGGSLRLSCAASGRAFSMYNMGWFRQAPGKEREFVAATGWSGANTPYADSVKGRFTISRDNTQNTVYLQMNSLKPEDTATYYCAADSIRLRSDVTRIPLEYDYWGQGTQVTVSS
- OD (PE binding ELISA) (mouse IL-2Rα (mouse)): 0.046 OD450 nm

B24: FJ1427_P035MP01A01 (VHH)
VHH: EVQLVESGGGLVQAGDSLRLSCAASGRSFRNYILAWYRQAPGKEREFLAAISWLDGTLYADSVEDRFTISRDNPKNTVHLQMDNLKPEDTAVYYCAADRGPVRPVLAPDVDYWGQGTQVSVSS
- OD (PE binding ELISA) (mouse IL-2Rα (mouse)): 0.046 OD450 nm

B27: FJ1427_P035MP01E02 (VHH)
VHH: B24 VHH with E1Q, S120T
- OD (PE binding ELISA) (mouse IL-2Rα (mouse)): 0.046 OD450 nm

B29: FJ1427_P035MP01E04 (VHH)
VHH: B24 VHH with E1Q, A24V, L58F, D61N, D65G, N84G, S120T, S122A
- OD (PE binding ELISA) (mouse IL-2Rα (mouse)): 0.046 OD450 nm

Now from value to binder:

- OD (PE binding ELISA) (mouse IL-2Rα (mouse)): 0.046 OD450 nm
B3: FJ1427_P035MP01F08 (VHH)
VHH: B1 VHH with A14P, T28S, V58L, Y59D, N65D, P74S, D76N, A121V

- OD (PE binding ELISA) (mouse IL-2Rα (mouse)): 0.049 OD450 nm
B5: FJ1427_P035MP01H07 (VHH)
VHH: B4 VHH with Q1E, T23A, S31G, S33A, A40P, A41P, V56I, G98A, T105D

- OD (PE binding ELISA) (mouse IL-2Rα (mouse)): 0.047 OD450 nm
B9: FJ1427_P035MP01G04 (VHH)
VHH: B7 VHH with T24A, R30S, G54F, E56D, T59R, A75E, Y80H, Q112R

- OD (PE binding ELISA) (mouse IL-2Rα (mouse)): 0.045 OD450 nm
B12: FJ1427_P035MP01F03 (VHH)
VHH: B7 VHH with T24A, R30S, I105V

- OD (PE binding ELISA) (mouse IL-2Rα (mouse)): 0.046 OD450 nm
B14: FJ1427_P035MP01H05 (VHH)
VHH: B7 VHH with Q1E, T24A, R30S, G54F, E56D, Q112R

- OD (PE binding ELISA) (mouse IL-2Rα (mouse)): 0.046 OD450 nm
B16: FJ1427_P035MP01F02 (VHH)
VHH: B15 VHH with E1Q, V5Q, V55I, T58K, F68S, R76G, Y80F, N100K, Y116D

- OD (PE binding ELISA) (mouse IL-2Rα (mouse)): 0.053 OD450 nm
B17: FJ1427_P035MP01G01 (VHH)
VHH: B15 VHH with E1Q, V5Q, G75D, Y95F, A108R, Y114F, D115G, Q122R

- OD (PE binding ELISA) (mouse IL-2Rα (mouse)): 0.047 OD450 nm
B18: FJ1427_P035MP01H08 (VHH)
VHH: B15 VHH with G10R, A14S, T28A, R30S, T58K, D62N, T69A, V107M, A108R, Y116V

- OD (PE binding ELISA) (mouse IL-2Rα (mouse)): 0.046 OD450 nm
B20: FJ1427_P035MP01E05 (VHH)
VHH: B15 VHH with E1Q, K43E, A50V, T58K, A108R, Y114F, D115G

- OD (PE binding ELISA) (mouse IL-2Rγ (mouse)): 0.051 OD450 nm
B21: FJ1427_P035MP04E12 (VHH)
VHH: QLQLVESGGGWVQVGESLRLSCAPSGRTFASGIMGWFRQAPGKEREFVARIILNNNSTRYTDSVKGRFTISRDSAKNTMYLQMNTLRPEDTAVYYCAARDRYGSGNSLSPSAYDYWGQGTQVTVSS

- OD (PE binding ELISA) (mouse IL-2Rα (mouse)): 0.046 OD450 nm
B25: FJ1427_P035MP01E10 (VHH)
VHH: B24 VHH with E1Q, N84S, S120T

- OD (PE binding ELISA) (mouse IL-2Rα (mouse)): 0.048 OD450 nm
B26: FJ1427_P035MP01G03 (VHH)
VHH: B24 VHH with E1Q, R99Q, S120T

- OD (PE binding ELISA) (mouse IL-2Rα (mouse)): 0.047 OD450 nm
B28: FJ1427_P035MP01G07 (VHH)
VHH: B24 VHH with E1Q, A14T, D65G, N84S, S120T

- OD (PE binding ELISA) (mouse IL-2Rα (mouse)): 0.046 OD450 nm
B30: FJ1427_P035MP01E07 (VHH)
VHH: B24 VHH with E1Q, V5Q, D55E, N84S, S120T

- OD (PE binding ELISA) (mouse IL-2Rα (mouse)): 0.047 OD450 nm
B31: FJ1427_P035MP01H02 (VHH)
VHH: QLQLVESGGGLVQAGDSLRLSCAASGRAFSRYAVGWFRMAPGKGREFVSAINSSGANTYVLDSVKGRFTISRDNDKNTAYLQMDSLQPEDTAVYWCAATSSSYSTYEANYNVWGQGTQVTVSS

- OD (PE binding ELISA) (mouse IL-2Rα (mouse)): 0.046 OD450 nm
B32: FJ1427_P035MP01F06 (VHH)
VHH: B31 VHH with D16G, R27G, N52D, S53L, A56T, Y59H, S85K, T105D, V112I
